In patent US20240002531A1 (ONO PHARMACEUTICAL, published 2024):
One block for each binder: values may come before it.

Key:
[1] = molecular target: T1, HER2-W614A expressed on CHO-K1 cells (human, UniProt P04626 23-1255); assay: flow cytometry on CHO-K1 cells expressing the point mutant
T1 construct: also called W614A point mutant; not shown: PA tag at the N terminus; RAP tag and MAP tag at the C terminus

[2] = molecular target: T2, V604A peptide (HER2 603-622 with V604A) (human); assay: SPR Biacore, mAb on chip, peptide analyte, 1:1 fit;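 further: binding measured at 25 °C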
T2 peptide: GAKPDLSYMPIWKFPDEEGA

[3] = molecular target: T3, E619A peptide (HER2 603-622 with E619A) (human); assay: SPR Biacore, mAb on chip, peptide analyte, 1:1 fit;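 further: binding measured at 25 °C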
T3 peptide: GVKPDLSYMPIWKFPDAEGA

[4] = molecular target: T4, E620A peptide (HER2 603-622 with E620A) (human); assay: SPR Biacore, mAb on chip, peptide analyte, 1:1 fit;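 further: binding measured at 25 °C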
T4 peptide: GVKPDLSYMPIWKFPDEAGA

[5] = molecular target: T5, G621A peptide (HER2 603-622 with G621A) (human); assay: SPR Biacore, mAb on chip, peptide analyte, 1:1 fit;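 further: binding measured at 25 °C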
T5 peptide: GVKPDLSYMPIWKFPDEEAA

[6] = molecular target: T6, HER2 peptide p603-622 (amino acids 603 to 622 of human HER2) (human); assay: SPR Biacore, mAb on chip, peptide analyte, 1:1 fit;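 further: all binding measurements run at 25 °C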
T6 construct: Synthetic peptide; also called wild-type HER2 peptide
T6 peptide: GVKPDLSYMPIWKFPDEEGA

[7] = molecular target: T7, HER2 peptide p614-620 (human); assay: SPR Biacore, mAb on chip, peptide analyte, 1:1 fit;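 further: all binding measurements run at 25 °C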
T7 peptide: WKFPDEE

[8] = molecular target: T8, HER2 peptide p614-622 (human); assay: SPR Biacore, mAb on chip, peptide analyte, 1:1 fit;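 further: all binding measurements run at 25 °C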
T8 peptide: WKFPDEEGA

[9] = molecular target: T9, HER2 peptide p613-618 (human); assay: SPR Biacore, mAb on chip, peptide analyte, 1:1 fit;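 further: all binding measurements run at 25 °C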
T9 peptide: IWKFPD

[10] = molecular target: T10, HER2 peptide p613-619 (human); assay: SPR Biacore, mAb on chip, peptide analyte, 1:1 fit;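 further: all binding measurements run at 25 °C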
T10 peptide: IWKFPDE

[11] = molecular target: T11, HER2 peptide p613-620 (human); assay: SPR Biacore, mAb on chip, peptide analyte, 1:1 fit;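 further: all binding measurements run at 25 °C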
T11 peptide: IWKFPDEE

[12] = molecular target: T12, HER2 peptide p612-618 (human); assay: SPR Biacore, mAb on chip, peptide analyte, 1:1 fit
T12 construct: also called PIWKFPD
T12 peptide: PIWKFPD

[13] = molecular target: T13, HER2 peptide p612-619 (human); assay: SPR Biacore, mAb on chip, peptide analyte, 1:1 fit
T13 peptide: PIWKFPDE

[14] = molecular target: T14, HER2 peptide p612-620 (human); assay: SPR Biacore, mAb on chip, peptide analyte, 1:1 fit
T14 peptide: PIWKFPDEE

[15] = molecular target: T15, HER2 peptide p612-621 (human); assay: SPR Biacore, mAb on chip, peptide analyte, 1:1 fit
T15 peptide: PIWKFPDEEG

[16] = molecular target: T16, HER2 peptide p611-618 (human); assay: SPR Biacore, mAb on chip, peptide analyte, 1:1 fit
T16 peptide: MPIWKFPD

[17] = molecular target: T17, HER2 peptide p611-621 (human); assay: SPR Biacore, mAb on chip, peptide analyte, 1:1 fit
T17 peptide: MPIWKFPDEEG

[18] = molecular target: T18, HER2 peptide p610-619 (human); assay: SPR Biacore, mAb on chip, peptide analyte, 1:1 fit
T18 peptide: YMPIWKFPDE

[19] = molecular target: T19, HER2 peptide p610-621 (human); assay: SPR Biacore, mAb on chip, peptide analyte, 1:1 fit
T19 peptide: YMPIWKFPDEEG

[20] = molecular target: T20, HER2 peptide p609-618 (human); assay: SPR Biacore, mAb on chip, peptide analyte, 1:1 fit
T20 peptide: SYMPIWKFPD

[21] = molecular target: T21, HER2 peptide p609-621 (human); assay: SPR Biacore, mAb on chip, peptide analyte, 1:1 fit
T21 peptide: SYMPIWKFPDEEG

[22] = molecular target: T22, HER2 peptide p609-622 (human); assay: SPR Biacore, mAb on chip, peptide analyte, 1:1 fit
T22 peptide: SYMPIWKFPDEEGA

[23] = molecular target: T23, HER2-K615A expressed on CHO-K1 cells (human, UniProt P04626 23-1255); assay: flow cytometry on CHO-K1 cells expressing the point mutant
T23 construct: also called K615A point mutant; not shown: PA tag at the N terminus; RAP tag and MAP tag at the C terminus

[24] = molecular target: T24, HER2-F616A expressed on CHO-K1 cells (human, UniProt P04626 23-1255); assay: as above
T24 construct: also called F616A point mutant; not shown: PA tag at the N terminus; RAP tag and MAP tag at the C terminus

B1: H2Mab-250 antibody (antibody, V domains shown)
VH: EVQLVESGGGLVQPGGSLKLSCAASGFTFSNYGMSWVRQTPDRRLELVATINNNGGGTYYPDSVKGRFTISRDNAKNTLYLQMSSLKSEDTAMYYCTSPGLLWDAWGAGTTVTVSS
VL: not shown
notes: Mouse monoclonal from a hybridoma (immunogen HER2ec made in LN229 cells); also called antibody of the present invention
- binding result [1]: no binding (tested: 10 g/mL (so in the source))

- Kd [2]: 22.7 nM
- koff [2]: 0.00619 s⁻¹
- kon [2]: 273000 M⁻¹ s⁻¹
- Kd [3]: 66.2 nM
- koff [3]: 0.0111 s⁻¹
- kon [3]: 168000 M⁻¹ s⁻¹
- Kd [4]: 42 nM
- koff [4]: 0.00762 s⁻¹
- kon [4]: 182000 M⁻¹ s⁻¹
- Kd [5]: 20.4 nM
- koff [5]: 0.0059 s⁻¹
- kon [5]: 290000 M⁻¹ s⁻¹
- Kd [6]: 22.8 nM
- koff [6]: 0.00534 s⁻¹
- Kd [7]: 41200 nM
- koff [7]: 0.0152 s⁻¹
- kon [7]: 370 M⁻¹ s⁻¹
- Kd [8]: 26400 nM
- koff [8]: 0.0115 s⁻¹
- kon [8]: 435 M⁻¹ s⁻¹
- Kd [9]: 915 nM
- koff [9]: 0.013 s⁻¹
- kon [9]: 14200 M⁻¹ s⁻¹
- Kd [10]: 1610 nM
- koff [10]: 0.0136 s⁻¹
- kon [10]: 8450 M⁻¹ s⁻¹
- Kd [11]: 2310 nM
- koff [11]: 0.01 s⁻¹
- kon [11]: 4340 M⁻¹ s⁻¹
- Kd [12]: 27.7 nM
- koff [12]: 0.013 s⁻¹
- kon [12]: 467000 M⁻¹ s⁻¹
- Kd [13]: 22.2 nM
- koff [13]: 0.0235 s⁻¹
- kon [13]: 1.06e+06 M⁻¹ s⁻¹
- Kd [14]: 23.7 nM
- koff [14]: 0.0179 s⁻¹
- kon [14]: 754000 M⁻¹ s⁻¹
- Kd [15]: 27.9 nM
- koff [15]: 0.024 s⁻¹
- kon [15]: 859000 M⁻¹ s⁻¹
- Kd [16]: 21 nM
- koff [16]: 0.0141 s⁻¹
- kon [16]: 669000 M⁻¹ s⁻¹
- Kd [17]: 16.8 nM
- koff [17]: 0.00961 s⁻¹
- kon [17]: 571000 M⁻¹ s⁻¹
- Kd [18]: 5.74 nM
- koff [18]: 0.0051 s⁻¹
- kon [18]: 889000 M⁻¹ s⁻¹
- Kd [19]: 8.57 nM
- koff [19]: 0.00519 s⁻¹
- kon [19]: 679000 M⁻¹ s⁻¹
- Kd [20]: 14.3 nM
- koff [20]: 0.0107 s⁻¹
- kon [20]: 747000 M⁻¹ s⁻¹
- Kd [21]: 8.06 nM
- koff [21]: 0.00465 s⁻¹
- kon [21]: 577000 M⁻¹ s⁻¹
- Kd [22]: 9.37 nM
- koff [22]: 0.00526 s⁻¹
- kon [22]: 561000 M⁻¹ s⁻¹
B2: H2Mab-214 antibody (antibody, V domains shown)
VH: QVTLKESGPGILQPSQTLSLTCSFSGFSLSTSGMGVSWIRQPSGKGLEWLAHIFWDDDKRYNPSLKSRLTISKDTSRNKVFLKITSVDTADTATYYCARRVVATDWYFDVWGAGTTVTVSS
VL: DIVLTQSPASLAVSLGQRATISCRASESVEYYGTTLMQWYQQKPGQPPKLLIYAASKVESGVPARFSGSGSGTDFSLNIHPVEEDDVAMYFCQQSRKVPLTFGAGTKLELKR
notes: as for B1
- binding result [23]: no binding (tested: 10 g/mL (so in the source))
- binding result [24]: no binding (tested: 10 g/mL (so in the source))
